Test system: hPSCs cultured in Gel-3D
Assay: hPSC amniogenesis assay (Gel-3D culture), requirement of BMP-SMAD signalling
Type: cell-based, human
Source text: Implantation-Like Niche Described herein is a biomimicry approach to engineer a biomaterial-based in vitro hPSC culture system for efficient generation of early human amniotic tissue. Specifically, a biomimetic implantation-like niche for cultured hPSCs was constructed by implementing two major biophysical factors seen in the in vivo amniogenic niche: a three-dimensional (3D) extracellular matrix (ECM) that is provided by the basement membrane surrounding the epiblast during implantation 1l; and a soft tissue bed provided by the uterine wall and trophoblast to support the developing amnion (FIG. 1a,b). mTeSR1 medium and basement membrane matrix (Geltrex) was used to render the culture permissive for pluripotency maintenance. In this culture system, H9 human embryonic stem cells (hESCs) were plated as single cells at 30,000 cells cm^2 onto a thick, soft gel bed of Geltrex (with thickness 100 μm, bulk Young's modulus 900 Pa, coated on a glass coverslip), in mTeSR1 medium supplemented with the ROCK inhibitor Y2763212 (FIG. 1b). At 24 h (day 1), medium containing Y27632 was replaced by fresh mTeSR1 supplemented with 4% (v/v) Geltrex to establish a 3D implantation-like niche (referred to henceforth as the ‘Gel-3D’ condition). To assess the effect of ECM dimensionality and matrix rigidity, respectively, several modifications of this Gel-3D condition were tested (FIG. 1b). First, the Geltrex supplement was excluded from the medium, with the gel bed retained (referred to henceforth as the ‘Gel-2D’ condition). Second, the soft gel bed was replaced by a 1% Geltrex-coated glass coverslip (referred to henceforth as the ‘Glass-3D’ condition). Finally, a standard 2D culture, using a 1% Geltrex-coated glass coverslip (referred to henceforth as the ‘Glass-2D’ condition), was examined as a control that maintains hPSC self-renewal. Culture medium was replenished daily. Analyses were performed at day 5 unless otherwise noted (FIG. 1b). […]

Molecule | hPSC-amnion development (hPSCs cultured in Gel-3D, treatment on day 2 alone or on both days 2 and 3, FIG. 5d) | development of hPSC-amnion (hPSCs in Gel-3D, treatment with NOGGIN) | amniogenic differentiation (restatement in Example 2 of the BMP-SMAD requirement for amniogenesis)
c1ccc2c(-c3cnn4cc(-c5ccc(N6CCNCC6)cc5)cnc34)ccnc2c1 [LDN193189, reference compound] | inhibited hPSC-amnion development | – | –
NOGGIN: a protein that antagonizes BMP2/4/7 (protein, UniProt Q13253 28-232, looked up) Noggin: QHYLHIRPAPSDNLPLVDLIEHPDPIFDPKEKDLNETLLRSLLGGHYDPGFMATSPPEDRPGGGGGAAGGAEDLAELDQLLRQRPSGAMPSEIKGLEFSEGLAQGKKQRLSKKLRRKLQMWLWSQTFCPVLYAWNDLGSRFWPRYVKVGSCFSKRSCSVPEGMVCKPSKSVHLTVLRWRCQRRGGQRCGWIPIQYPIISECKCSC | – | inhibited | inhibit amniogenic differentiation

From patent US12558381B2, “Development of amnion-like tissue from human pluripotent stem cells” (THE REGENTS OF THE UNIVERSITY OF MICHIGAN, priority 2016, dated 2026)
